Reference: publication PMC10360031

Molecular target: cell-surface vimentin (CSV) on mouse embryonic fibroblasts mEF +/+ (mouse (endogenous in mEF)) (UniProt P20152)
Test: AFM single-molecule force spectroscopy

Substance | mean rupture force at 5 um/s [pN] | binding probability (specific adhesion events) (% of force curves)
Brazil P.1 RBD (from UniProt P0DTC2) (domain or fragment) | 31.3 | –
South Africa B.1.135 RBD (from UniProt P0DTC2) (domain or fragment) | 25.8 | –
wild-strain SARS-CoV-2 spike protein RBD (from UniProt P0DTC2) (domain or fragment) | – | < 10
